Source: patent US20120014950A1, “Antibodies That Specifically Bind to DR3” (Xencor, Inc., priority 2010, published 2012)
“Also recorded” adds a separate entry of the source.

Assays:
primary human T cells = assay: Primary human T cell assay (proliferation, cytokine secretion); assay type: cell-based
Protocol: A primary human T cell assay can be performed using standard methods known in the art. Briefly, primary human T cells are incubated with 100 ng/mL human TL1A ligand and appropriate concentrations of the antibody molecules to be tested for 72 hours. This incubation is followed by a 24 hour incubation with 5 ng/mL IL-2. Proliferation is measured by a standard luminescent protocol. The amount of cytokine secreted is determined by standard methods in the art.
A primary human T cell assay was performed to determine the effect of the 11H08-Fab-HSA on proliferation and the secretion of IFNγ or GM-CSF from cells treated with TL1A. […] 3 μg/mL 11H08-Fab-HSA, 3 μg/mL hDR3-Fc, or 3 μg/mL full length 11H08 immunoglobulin were used in this experiment. Results were compared to a set of cells treated only with media and cells that were treated only with 100 ng/mL TL1A, as indicated.

human DR3 [1] = biological target: T1, human DR3 (Homo sapiens, UniProt Q93038); assay: TL1A binding inhibition assay (flow cytometry); parameters: expressed in transfected cells; host or cells: HEK293F (transient); conditions: HEK293F cells transiently expressing human DR3, 1 μg/mL human TL1A
T1 sequence (Q93038 25-417): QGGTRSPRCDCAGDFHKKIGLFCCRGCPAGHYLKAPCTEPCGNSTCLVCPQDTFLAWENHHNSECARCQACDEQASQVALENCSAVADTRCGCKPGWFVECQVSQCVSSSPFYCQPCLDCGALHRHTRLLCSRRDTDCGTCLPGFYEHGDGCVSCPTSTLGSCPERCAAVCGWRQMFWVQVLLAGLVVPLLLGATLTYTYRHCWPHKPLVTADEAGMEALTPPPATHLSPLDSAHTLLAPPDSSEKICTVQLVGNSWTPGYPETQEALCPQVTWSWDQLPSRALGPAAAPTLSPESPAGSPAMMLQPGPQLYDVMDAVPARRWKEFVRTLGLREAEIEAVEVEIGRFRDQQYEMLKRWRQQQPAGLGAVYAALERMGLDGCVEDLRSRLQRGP
Protocol: The anti-DR3 monoclonal antibody 11H08 was assayed for its ability to inhibit human TL1A binding to human DR3 using techniques known to those skilled in the art. Briefly, HEK293F cells transiently expressing human DR3 were incubated with 1 μg/mL of human TL1A in the presence of either an unrelated antibody (mIgG1) as an isotype control that was known not to bind TL1A or DR3, or an anti-DR3 monoclonal antibody (11H08), for 20 minutes at room temperature. Binding was detected using an anti-TL1A-biotin polyclonal antibody followed by Streptavidin PE. The ability of the anti-DR3 monoclonal antibody to inhibit binding of TL1A to DR3 was measured by flow cytometry.

human DR3 [2] = biological target: T1, human DR3; assay: TF-1 assay (cell viability, cycloheximide, Cell Titer Glo); assay type: cell-based; parameters: endogenous in cells; host or cells: TF-1 (premyeloid); conditions: TF-1 cells with cycloheximide; luminescence
human DR3 [3] = biological target: T1, human DR3; assay: as above; assay type: cell-based; parameters: endogenous in cells; host or cells: TF-1 (premyeloid); conditions: TF-1 cells, 10 ng/mL hTL1A and cycloheximide; luminescence
Protocol: Treatment of TF-1 cells with human TL1A (the ligand for DR3) in the presence of cycloheximide induces cell death (Migone et al., Immunity 16:479-492 (2002)). A TF-1 assay was used to test the ability of 11H08 to block TL1A activity through the DR3 receptor.
A TF-1 assay can be performed according to methods known in the art. Briefly, premyeloid TF-1 cells are maintained in 10% FBS (fetal bovine serum), 1×RPMI, 1% Pen-Strep with Glutamine, and 2 ng/mL GM-CSF. The cells are grown until log phase, washed three times in PBS, and incubated with the antibodies to be tested for one hour. After this pre-incubation, between 50,000 and 100,000 cells are seeded per well. The cells are combined with 10 ng/mL hTL1A, 10 μg/mL cycloheximide (Sigma-Aldrich, cat #C1988-1G) and the antibodies to be tested and then incubated for 24 to 72 hours. Cell viability is measured using Cell Titer Glo (Promega, cat #G7570). This assay allows cell viability to be determined by measuring the luminescent signal which is proportional to the amount of ATP present. The ATP is indicative of metabolically active cells and higher luminescence signals reflect greater cell viability.
In order to test the effect of 11H08-scFv-HSA and the humanized anti-DR3-Fab molecules, a TF-1 assay was used to test the ability of these various anti-DR3 fragments to block TL1A induced activity. The TF-1 assay was performed as indicated above in Example 5, but where the various anti-DR3 fragments were used instead of the whole 11H08 immunoglobulin as described.

[4] = 100 ng/mL hTL1A, 3 μg/mL test molecule

B1: 11H08: mouse anti-human DR3 monoclonal antibody, isotype IgG1κ, from hybridoma 11H08; VH SEQ ID NO:7, VL SEQ ID NO:20 (antibody, listed as Mus musculus, V domains shown)
VH: EVMLVESGGGLVKPGGSLKLSCAASGFTFTNYAMSWVRQTPEKRLEWVATITSGGSYIYYLDSVKGRFTISRDNAKSTLYLQMSSLRSEDTAIYNCARRKDGNYYYAMDYWGQGTSVTVSS
VL: DIVLTQSPASLAVSLGQRATISCRASESVDSYGNSFIHWYQQKAGQPPKLLIYRASNLESGIPARFSGSGSRTDFTLTINPVEADDVATYYCQQSYEDPWTFGGGTKLEIK
With B1 the “proliferation and cytokine secretion (agonist activity)” value (primary human T cells; 3 μg/mL antibody alone) was “induced TL1A-like activity”, the “inhibition of human TL1A binding to human DR3” value (human DR3 [1]) was “inhibited human TL1A binding to the human DR3 receptor” and the “TF-1 cell viability / apoptosis induction (agonist, TL1A-like activity)” value (human DR3 [2]) was “activated the DR3 receptor, thereby inducing TL1A-like activity”.

B2: 11H08-Fab: Fab of 11H08 VH/VL (SEQ ID NOs:7, 20) with human IgG1 CH1 and Cκ; parental anti-DR3 molecule (antibody, listed as Mus musculus, V domains shown)
VH: EVMLVESGGGLVKPGGSLKLSCAASGFTFTNYAMSWVRQTPEKRLEWVATITSGGSYIYYLDSVKGRFTISRDNAKSTLYLQMSSLRSEDTAIYNCARRKDGNYYYAMDYWGQGTSVTVSS
VL: DIVLTQSPASLAVSLGQRATISCRASESVDSYGNSFIHWYQQKAGQPPKLLIYRASNLESGIPARFSGSGSRTDFTLTINPVEADDVATYYCQQSYEDPWTFGGGTKLEIK
modifications: human IgG1 CH1 and Ckappa constant domains
notes: parental anti-DR3 molecule
With B2 the “inhibition of TL1A-induced apoptosis (TF-1 cell viability)” value (from here on “inhibition of TL1A-induced apoptosis”) (human DR3 [3]) was “prevented TL1A-induced apoptosis; also recorded: inhibited TL1A-induced apoptosis in TF-1 cells”.

B3: H1L2-Fab: humanized anti-DR3 Fab, VH H1 (SEQ ID NO:9), VL L2 (SEQ ID NO:22, Leu at Kabat 104) (antibody, V domains shown)
VH: EVQLVESGGGLVKPGGSLRLSCAASGFTFTNYAMSWVRQAPGQRLEWVSTITSGGSYIYYLDSVKGRFTISRDNAKSTLYLQMNSLRAEDTAVYNCARRKDGNYYYAMDYWGQGTTVTVSS
VL: DIVLTQSPSSLSASVGDRVTITCRASESVDSYGNSFIHWYQQKPGQPPKLLIYRASNLESGIPARFSGSGSRTDFTLTISSLQPEDFATYYCQQSYEDPWTFGGGTKXEIK
modifications: Fab constant domains; humanized murine antibody
With B3 the “inhibition of TL1A-induced apoptosis” value (human DR3 [3]) was “inhibited TL1A-induced apoptosis in TF-1 cells”.

B4: hDR3-Fc: human DR3-Fc fusion protein, known to bind TL1A and inhibit activity (protein)
chain: QGGTRSPRCDCAGDFHKKIGLFCCRGCPAGHYLKAPCTEPCGNSTCLVCPQDTFLAWENHHNSECARCQACDEQASQVALENCSAVADTRCGCKPGWFVECQVSQCVSSSPFYCQPCLDCGALHRHTRLLCSRRDTDCGTCLPGFYEHGDGCVSCPTSTLGSCPERCAAVCGWRQ
modifications: left off: a dimerising Fc or GST
For B4, the TL1A-induced cell proliferation (primary human T cells; [4]) was “inhibited” and the “TL1A-induced cytokine secretion (IFNγ, GM-CSF)” value (primary human T cells; [4]) was “inhibited”.

B5: H5L2-Fab: humanized anti-DR3 Fab, VH H5 (SEQ ID NO:17), VL L2 (SEQ ID NO:22, Leu at Kabat 104) (antibody, V domains shown)
VH: EVQLLQSGAEVKKPGASVKVSCKASGFTFTNYAMSWVRQAPGQRLEWVATITSGGSYIYYLDSVKGRFTISRDNAKSTLHLQMNSLRAEDTAVYNCARRKDGNYYYAMDYWGQGTTVTVSS
VL: DIVLTQSPSSLSASVGDRVTITCRASESVDSYGNSFIHWYQQKPGQPPKLLIYRASNLESGIPARFSGSGSRTDFTLTISSLQPEDFATYYCQQSYEDPWTFGGGTKXEIK
modifications: Fab constant domains; humanized murine antibody
B5 was tested, and the “inhibition of TL1A-induced apoptosis” value (human DR3 [3]) was “inhibited TL1A-induced apoptosis in TF-1 cells”.
